From paper PMC4741457, “Structural basis for the indispensable role of a unique zinc finger motif in LNX2 ubiquitination” (Oncotarget, 2015) come the findings set out here.

This series deals with the molecule itself. Kind of series: SEC; calibrated gel-filtration column (Superdex 75 or Superdex 200), each protein run alone. Background: SEC sorts molecules by how far they enter the pores of the column.

B1: full-length LNX2 (enzyme, human, UniProt Q8N448 1-690, looked up)
chain: MGTTSDEMVSVEQTSSSSLNPLCFECGQQHWTRENHLYNYQNEVDDDLVCHICLQPLLQPLDTPCGHTFCYKCLRNFLQEKDFCPLDRKRLHFKLCKKSSILVHKLLDKLLVLCPFSSVCKDVMQRCDLEAHLKNRCPGASHRRVALERRKTSRTQAEIENENGPTLLDPAGTLSPEADCLGTGAVPVERHLTSASLSTWSEEPGLDNPAFEESAGADTTQQPLSLPEGEITTIEIHRSNPYIQLGISIVGGNETPLINIVIQEVYRDGVIARDGRLLAGDQILQVNNYNISNVSHNYARAVLSQPCNTLHLTVLRERRFGNRAHNHSDSNSPREEIFQVALHKRDSGEQLGIKLVRRTDEPGVFILDLLEGGLAAQDGRLSSNDRVLAINGHDLKYGTPELAAQIIQASGERVNLTIARPGKPQPGNTIREAGNHSSSSQHHTPPPYYSRPSSHKDLTQCVTCQEKHITVKKEPHESLGMTVAGGRGSKSGELPIFVTSVPPHGCLARDGRIKRGDVLLNINGIDLTNLSHSEAVAMLKASAASPAVALKALEVQIVEEATQNAEEQPSTFSENEYDASWSPSWVMWLGLPSTLHSCHDIVLRRSYLGSWGFSIVGGYEENHTNQPFFIKTIVLGTPAYYDGRLKCGDMIVAVNGLSTVGMSHSALVPMLKEQRNKVTLTVICWPGSLV
notes: Ligand of Numb protein-X 2 (LNX2), human, full length (last residue Val690); The methods say in general that MBP-tagged proteins were cleaved with TEV protease before size exclusion; MBP-tagged FL-LNX2 was used uncleaved in some ubiquitination assays; also called FL-LNX2; Ligand of Numb Protein-X 2; source: E. coli BL21 (DE3), purified (amylose sepharose, size exclusion)
As to B1, the “stoichiometry N” value amounted to 2.

B2: full-length LNX2 triple mutant (Lys109Ala, Ser688Asp, Val690Glu) (enzyme, human, UniProt Q8N448 1-690, looked up)
chain: MGTTSDEMVSVEQTSSSSLNPLCFECGQQHWTRENHLYNYQNEVDDDLVCHICLQPLLQPLDTPCGHTFCYKCLRNFLQEKDFCPLDRKRLHFKLCKKSSILVHKLLDALLVLCPFSSVCKDVMQRCDLEAHLKNRCPGASHRRVALERRKTSRTQAEIENENGPTLLDPAGTLSPEADCLGTGAVPVERHLTSASLSTWSEEPGLDNPAFEESAGADTTQQPLSLPEGEITTIEIHRSNPYIQLGISIVGGNETPLINIVIQEVYRDGVIARDGRLLAGDQILQVNNYNISNVSHNYARAVLSQPCNTLHLTVLRERRFGNRAHNHSDSNSPREEIFQVALHKRDSGEQLGIKLVRRTDEPGVFILDLLEGGLAAQDGRLSSNDRVLAINGHDLKYGTPELAAQIIQASGERVNLTIARPGKPQPGNTIREAGNHSSSSQHHTPPPYYSRPSSHKDLTQCVTCQEKHITVKKEPHESLGMTVAGGRGSKSGELPIFVTSVPPHGCLARDGRIKRGDVLLNINGIDLTNLSHSEAVAMLKASAASPAVALKALEVQIVEEATQNAEEQPSTFSENEYDASWSPSWVMWLGLPSTLHSCHDIVLRRSYLGSWGFSIVGGYEENHTNQPFFIKTIVLGTPAYYDGRLKCGDMIVAVNGLSTVGMSHSALVPMLKEQRNKVTLTVICWPGDLE
notes: LNX2, human, full length, with Lys109Ala, Ser688Asp and Val690Glu; also called triple mutant of human FL-LNX2; source: E. coli BL21 (DE3), purified
With B2, the binding result is reported as “binds”.

B3: Zn-RING-Zn domain of LNX2 (aa 20-147) (domain or fragment, human, UniProt Q8N448 20-147, looked up)
chain: NPLCFECGQQHWTRENHLYNYQNEVDDDLVCHICLQPLLQPLDTPCGHTFCYKCLRNFLQEKDFCPLDRKRLHFKLCKKSSILVHKLLDKLLVLCPFSSVCKDVMQRCDLEAHLKNRCPGASHRRVAL
notes: Genes were cloned into pGEX6P-1 or pMAL; The last six residues are not in the crystallographic model; Four zinc ions per monomer; source: E. coli BL21 (DE3), purified (glutathione or amylose sepharose, tag cleaved, Superdex size exclusion)
With B3, the “stoichiometry N” value was 2.

B4: Zn-RING-Zn domain of LNX2 (aa 20-147) Asp45Ala (domain or fragment, human, UniProt Q8N448 20-147, looked up)
chain: NPLCFECGQQHWTRENHLYNYQNEVADDLVCHICLQPLLQPLDTPCGHTFCYKCLRNFLQEKDFCPLDRKRLHFKLCKKSSILVHKLLDKLLVLCPFSSVCKDVMQRCDLEAHLKNRCPGASHRRVAL
notes: PDB 5DIN is the wild-type parent of the same limits; also called Asp45Ala mutant; source: E. coli BL21 (DE3), purified
As for B4, the “stoichiometry N” value amounted to 2.

Broadly, the stoichiometry N is a count of units in the complex or per binding partner.
